Tested on: Escherichia coli TOP10
Assay: shrunken log2 fold change of peptide-encoding DNA abundance (4.5 h post-induction vs induction); higher = less antimicrobial activity (less host growth inhibition)
Conditions: time post-induction: 4.5 h; library: site-saturation at positions 5, 18, 19, 20
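Also: peptides expressed intracellularly from a pBAD plasmid library in pooled LB shake-flask culture, induced with 0.3% L-arabinose, DNA abundance read by NGS, three biological replicates, DESeq2 with apeglm shrinkage.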

Sequence | shrunken log2 fold change
RRIRCRPPRLPRPRPRPVMMPRP | -0.214
RRIRCRPPRLPRPRPRPVNEPRP | -0.266
RRIRCRPPRLPRPRPRPVNRPRP | -0.0405
RRIRCRPPRLPRPRPRPVNWPRP | 0.393
RRIRCRPPRLPRPRPRPVPIPRP | 0.0325
RRIRCRPPRLPRPRPRPVPNPRP | -0.26
RRIRCRPPRLPRPRPRPVQSPRP | 0.132
RRIRCRPPRLPRPRPRPVRPPRP | 0.504
RRIRCRPPRLPRPRPRPVSCPRP | 0.193
RRIRCRPPRLPRPRPRPVVMPRP | -0.138
RRIRCRPPRLPRPRPRPVVNPRP | -0.18
RRIRCRPPRLPRPRPRPWAPPRP | -0.102
RRIRCRPPRLPRPRPRPWDCPRP | -0.469
RRIRCRPPRLPRPRPRPWEGPRP | -0.00146
RRIRCRPPRLPRPRPRPWFGPRP | -0.374
RRIRCRPPRLPRPRPRPWHIPRP | -0.421
RRIRCRPPRLPRPRPRPWLAPRP | -0.298
RRIRCRPPRLPRPRPRPWLHPRP | -0.305
RRIRCRPPRLPRPRPRPWLKPRP | -0.133
RRIRCRPPRLPRPRPRPWMPPRP | -0.178
RRIRCRPPRLPRPRPRPWPQPRP | -0.0463
RRIRCRPPRLPRPRPRPWPRPRP | 0.398
RRIRCRPPRLPRPRPRPWQRPRP | 0.109
RRIRCRPPRLPRPRPRPWQWPRP | 0.187
RRIRCRPPRLPRPRPRPWTHPRP | -0.325

Sequence | shrunken log2 fold change
RRIRCRPPRLPRPRPRPWTIPRP | -0.0777
RRIRCRPPRLPRPRPRPWVFPRP | -0.0816
RRIRCRPPRLPRPRPRPWVPPRP | -0.423
RRIRCRPPRLPRPRPRPWVWPRP | -0.00389
RRIRCRPPRLPRPRPRPWWHPRP | -0.523
RRIRCRPPRLPRPRPRPWYEPRP | -0.135
RRIRCRPPRLPRPRPRPYALPRP | -0.115
RRIRCRPPRLPRPRPRPYCDPRP | -0.623
RRIRCRPPRLPRPRPRPYCLPRP | -0.442
RRIRCRPPRLPRPRPRPYDDPRP | -0.396
RRIRCRPPRLPRPRPRPYDFPRP | -0.894
RRIRCRPPRLPRPRPRPYFDPRP | -0.446
RRIRCRPPRLPRPRPRPYGCPRP | -0.00123
RRIRCRPPRLPRPRPRPYGWPRP | -0.27
RRIRCRPPRLPRPRPRPYILPRP | -1.53
RRIRCRPPRLPRPRPRPYINPRP | -0.968
RRIRCRPPRLPRPRPRPYIPPRP | -0.771
RRIRCRPPRLPRPRPRPYITPRP | -1.44
RRIRCRPPRLPRPRPRPYKSPRP | -1.19
RRIRCRPPRLPRPRPRPYLDPRP | -0.575
RRIRCRPPRLPRPRPRPYMGPRP | -0.017
RRIRCRPPRLPRPRPRPYMPPRP | -0.404
RRIRCRPPRLPRPRPRPYNKPRP | -1.02
RRIRCRPPRLPRPRPRPYPKPRP | 0.0488
RRIRCRPPRLPRPRPRPYPPPRP | -0.631

Sequence | shrunken log2 fold change
RRIRCRPPRLPRPRPRPYPRPRP | -0.00439
RRIRCRPPRLPRPRPRPYQPPRP | -0.152
RRIRCRPPRLPRPRPRPYQQPRP | -0.12
RRIRCRPPRLPRPRPRPYQYPRP | -0.399
RRIRCRPPRLPRPRPRPYRAPRP | -0.383
RRIRCRPPRLPRPRPRPYRHPRP | -0.982
RRIRCRPPRLPRPRPRPYRQPRP | 0.00128
RRIRCRPPRLPRPRPRPYSCPRP | -0.833
RRIRCRPPRLPRPRPRPYSPPRP | -1.13
RRIRCRPPRLPRPRPRPYTKPRP | -0.321
RRIRCRPPRLPRPRPRPYTSPRP | -0.526
RRIRCRPPRLPRPRPRPYWHPRP | -1.53
RRIRCRPPRLPRPRPRPYWQPRP | -0.419
RRIRCRPPRLPRPRPRPYYKPRP | -0.992
RRIRCRPPRLPRPRPRPYYPPRP | -1.27
RRIRDRPPRLPRPRPRPAACPRP | 0.598
RRIRDRPPRLPRPRPRPAAKPRP | 0.359
RRIRDRPPRLPRPRPRPACLPRP | 0.723
RRIRDRPPRLPRPRPRPADAPRP | 0.196
RRIRDRPPRLPRPRPRPADNPRP | -0.0897
RRIRDRPPRLPRPRPRPAEQPRP | 0.0426
RRIRDRPPRLPRPRPRPAFVPRP | -0.114
RRIRDRPPRLPRPRPRPAGEPRP | 0.0114
RRIRDRPPRLPRPRPRPAGWPRP | 1.05
RRIRDRPPRLPRPRPRPAHGPRP | -0.0897

Sequence | shrunken log2 fold change
RRIRDRPPRLPRPRPRPAHNPRP | -0.206
RRIRDRPPRLPRPRPRPAHWPRP | 0.404
RRIRDRPPRLPRPRPRPAIAPRP | 0.878
RRIRDRPPRLPRPRPRPAIYPRP | 0.00069
RRIRDRPPRLPRPRPRPAKTPRP | 0.152
RRIRDRPPRLPRPRPRPANCPRP | -0.00155
RRIRDRPPRLPRPRPRPANSPRP | 2.98
RRIRDRPPRLPRPRPRPANYPRP | -0.148
RRIRDRPPRLPRPRPRPASEPRP | 0.453
RRIRDRPPRLPRPRPRPASVPRP | 0.0326
RRIRDRPPRLPRPRPRPATAPRP | 0.722
RRIRDRPPRLPRPRPRPATFPRP | 0.222
RRIRDRPPRLPRPRPRPAVSPRP | -0.000946
RRIRDRPPRLPRPRPRPAWMPRP | -0.0284
RRIRDRPPRLPRPRPRPAWRPRP | 0.812
RRIRDRPPRLPRPRPRPAYGPRP | -0.11
RRIRDRPPRLPRPRPRPCAEPRP | 0.508
RRIRDRPPRLPRPRPRPCAVPRP | 0.189
RRIRDRPPRLPRPRPRPCCKPRP | 0.0846
RRIRDRPPRLPRPRPRPCCSPRP | 0.166
RRIRDRPPRLPRPRPRPCDEPRP | -0.00174
RRIRDRPPRLPRPRPRPCDGPRP | -0.0192
RRIRDRPPRLPRPRPRPCDIPRP | -0.11
RRIRDRPPRLPRPRPRPCDWPRP | 0.0416
RRIRDRPPRLPRPRPRPCFFPRP | 0.304

Sequence | shrunken log2 fold change
RRIRDRPPRLPRPRPRPCFIPRP | -0.13
RRIRDRPPRLPRPRPRPCFPPRP | -0.0323
RRIRDRPPRLPRPRPRPCGTPRP | -0.0281
RRIRDRPPRLPRPRPRPCIQPRP | -0.0125
RRIRDRPPRLPRPRPRPCISPRP | 0.0261
RRIRDRPPRLPRPRPRPCKVPRP | -0.202
RRIRDRPPRLPRPRPRPCLGPRP | -0.015
RRIRDRPPRLPRPRPRPCMDPRP | 0.0285
RRIRDRPPRLPRPRPRPCMEPRP | -0.0179
RRIRDRPPRLPRPRPRPCNAPRP | 0.0759
RRIRDRPPRLPRPRPRPCPTPRP | 0.131
RRIRDRPPRLPRPRPRPCQMPRP | -0.00455
RRIRDRPPRLPRPRPRPCRAPRP | -0.221
RRIRDRPPRLPRPRPRPCRKPRP | -0.00804
RRIRDRPPRLPRPRPRPCWIPRP | -0.255
RRIRDRPPRLPRPRPRPCWQPRP | 0.0562
RRIRDRPPRLPRPRPRPDAKPRP | 0.162
RRIRDRPPRLPRPRPRPDCGPRP | 0.315
RRIRDRPPRLPRPRPRPDCHPRP | 0.469
RRIRDRPPRLPRPRPRPDDDPRP | -0.00186
RRIRDRPPRLPRPRPRPDDSPRP | -0.0417
RRIRDRPPRLPRPRPRPDDVPRP | 0.276
RRIRDRPPRLPRPRPRPDEVPRP | -0.01
RRIRDRPPRLPRPRPRPDFCPRP | -0.0409
RRIRDRPPRLPRPRPRPDFVPRP | 1.35

Sequence | shrunken log2 fold change
RRIRDRPPRLPRPRPRPDGTPRP | 0.184
RRIRDRPPRLPRPRPRPDHQPRP | -0.0643
RRIRDRPPRLPRPRPRPDIAPRP | 0.209
RRIRDRPPRLPRPRPRPDIPPRP | 0.213
RRIRDRPPRLPRPRPRPDITPRP | 0.282
RRIRDRPPRLPRPRPRPDKCPRP | 0.089
RRIRDRPPRLPRPRPRPDKNPRP | -0.224
RRIRDRPPRLPRPRPRPDKPPRP | 0.00451
RRIRDRPPRLPRPRPRPDKYPRP | -0.582
RRIRDRPPRLPRPRPRPDLRPRP | -0.0435
RRIRDRPPRLPRPRPRPDMAPRP | 0.219
RRIRDRPPRLPRPRPRPDMIPRP | 0.0954
RRIRDRPPRLPRPRPRPDMPPRP | -0.0262
RRIRDRPPRLPRPRPRPDQIPRP | -0.0336
RRIRDRPPRLPRPRPRPDRAPRP | 0.281
RRIRDRPPRLPRPRPRPDRMPRP | -0.00945
RRIRDRPPRLPRPRPRPDRVPRP | -0.0392
RRIRDRPPRLPRPRPRPDTIPRP | -0.0164
RRIRDRPPRLPRPRPRPDTYPRP | -0.0814
RRIRDRPPRLPRPRPRPEDYPRP | 0.0219
RRIRDRPPRLPRPRPRPEEEPRP | 0.00884
RRIRDRPPRLPRPRPRPEFTPRP | 0.174
RRIRDRPPRLPRPRPRPEFYPRP | 0.475
RRIRDRPPRLPRPRPRPEHHPRP | 0.155
RRIRDRPPRLPRPRPRPEIMPRP | 0.245
